Measured values published in patent publication US20150344570A1 (published 2015).

T1: FcγRIIb extracellular domain with C-terminal His tag (human, UniProt P31994 43-217)
T1 construct: extracellular domain; also called 2b; FcgRIIb; not shown: His tag at the C terminus
T1 sequence (looked up): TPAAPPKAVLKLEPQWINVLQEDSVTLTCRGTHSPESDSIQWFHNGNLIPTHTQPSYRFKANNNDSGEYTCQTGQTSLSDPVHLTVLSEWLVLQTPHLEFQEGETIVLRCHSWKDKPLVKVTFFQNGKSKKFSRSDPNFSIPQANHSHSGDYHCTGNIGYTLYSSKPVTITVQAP

T2: FcγRIIb (human, UniProt P31994 43-217)
T2 construct: extracellular domain; Soluble extracellular domain with C-terminal His tag, used as analyte; also called FcgRIIb; CD32B; not shown: His tag at the C terminus
T2 sequence (looked up): T1 sequence (looked up)

B1: GpH7-A5/GpH7-B3 variant H268_05P/GpL16-k0 (antibody, human IgG1, kappa)
heavy 1: not shown
heavy 2: not shown
light: DIVMTQSPLSLPVTPGEPASISCQASESLVHSNRNTYLHWYLQKPGQSPQLLIYKVSNRFSGVPDRFSGSGSGTDFTLKISRVEAEDVGVYYCSQNTHVPPTFGQGTKVEIERTVAAPSVFIFPPSDEQLKSGTASVVCLLNNFYPREAKVQWKVDNALQSGNSQESVTEQDSKDSTYSLSSTLTLSKADYEKHKVYACEVTHQGLSSPVTKSFNRGEC
notes: IgG1, anti-glypican-3; also called He Ab
B2: GpH7-A5/GpH7-B3 variant P238_06M/GpL16-k0 (antibody, human IgG1, kappa)
heavy 1: not shown
heavy 2: not shown
light: B1 light
notes: as for B1
B3: GpH7-A5/GpH7-B3 variant P238_03V/GpL16-k0 (antibody, human IgG1, kappa)
heavy 1: not shown
heavy 2: not shown
light: B1 light
notes: as for B1
B4: GpH7-A5/GpH7-B3 variant H268_03V/GpL16-k0 (antibody, human IgG1, kappa)
heavy 1: not shown
heavy 2: not shown
light: B1 light
notes: as for B1
B5: GpH7-A5/GpH7-B3 variant K326_16H/GpL16-k0 (antibody, human IgG1, kappa)
heavy 1: not shown
heavy 2: not shown
light: B1 light
notes: as for B1
B6: GpH7-A5/GpH7-B3 variant H268_15Y/GpL16-k0 (antibody, human IgG1, kappa)
heavy 1: not shown
heavy 2: not shown
light: B1 light
notes: as for B1
B7: GpH7-A5/GpH7-B3 variant P238_04F/GpL16-k0 (antibody, human IgG1, kappa)
heavy 1: not shown
heavy 2: not shown
light: B1 light
notes: as for B1
B8: GpH7-A5/GpH7-B3 variant H268_01G/GpL16-k0 (antibody, human IgG1, kappa)
heavy 1: not shown
heavy 2: not shown
light: B1 light
notes: as for B1
B9: GpH7-A5/GpH7-B3 variant P238_08L/GpL16-k0 (antibody, human IgG1, kappa)
heavy 1: not shown
heavy 2: not shown
light: B1 light
notes: as for B1
B10: GpH7-A5/GpH7-B3 variant A327_01G/GpL16-k0 (antibody, human IgG1, kappa)
heavy 1: not shown
heavy 2: not shown
light: B1 light
notes: as for B1
B11: GpH7-A5/GpH7-B3 variant K326_20W/GpL16-k0 (antibody, human IgG1, kappa)
heavy 1: not shown
heavy 2: not shown
light: B1 light
notes: as for B1
B12: GpH7-A5/GpH7-B3 variant H268_20W/GpL16-k0 (antibody, human IgG1, kappa)
heavy 1: not shown
heavy 2: not shown
light: B1 light
notes: as for B1
B13: GpH7-A5/GpH7-B3 variant P238_15Y/GpL16-k0 (antibody, human IgG1, kappa)
heavy 1: not shown
heavy 2: not shown
light: B1 light
notes: as for B1
B14: GpH7-A5/GpH7-B3 variant N325_01G/GpL16-k0 (antibody, human IgG1, kappa)
heavy 1: not shown
heavy 2: not shown
light: B1 light
notes: as for B1
B15: GpH7-A5/GpH7-B3 variant L235_09D/GpL16-k0 (antibody, human IgG1, kappa)
heavy 1: not shown
heavy 2: not shown
light: B1 light
notes: as for B1
B16: GpH7-A5/GpH7-B3 variant S324_02A/GpL16-k0 (antibody, human IgG1, kappa)
heavy 1: not shown
heavy 2: not shown
light: B1 light
notes: He Ab: mutation in one H chain only; also called He Ab
B17: GpH7-A5/GpH7-B3 variant Y300_08L/GpL16-k0 (antibody, human IgG1, kappa)
heavy 1: not shown
heavy 2: not shown
light: B1 light
notes: as for B16
B18: GpH7-A5/GpH7-B3 variant S337_11K/GpL16-k0 (antibody, human IgG1, kappa)
heavy 1: not shown
heavy 2: not shown
light: B1 light
notes: as for B16
B19: GpH7-A5/GpH7-B3 variant S324_11K/GpL16-k0 (antibody, human IgG1, kappa)
heavy 1: not shown
heavy 2: not shown
light: B1 light
notes: as for B16
B20: GpH7-A5/GpH7-B3 variant Y300_11K/GpL16-k0 (antibody, human IgG1, kappa)
heavy 1: not shown
heavy 2: not shown
light: B1 light
notes: as for B16
B21: GpH7-A5/GpH7-B3 variant S324_15Y/GpL16-k0 (antibody, human IgG1, kappa)
heavy 1: not shown
heavy 2: not shown
light: B1 light
notes: as for B16
B22: GpH7-A5/GpH7-B3 variant Y300_16H/GpL16-k0 (antibody, human IgG1, kappa)
heavy 1: not shown
heavy 2: not shown
light: B1 light
notes: as for B16
B23: GpH7-A5/GpH7-B3 variant Y300_09D/GpL16-k0 (antibody, human IgG1, kappa)
heavy 1: not shown
heavy 2: not shown
light: B1 light
notes: as for B16

The binders below were run against T3, FcγRIIIa extracellular domain with C-terminal His tag (human, UniProt P08637 17-208) (assay: SPR (Biacore), relative to GpH7-A5/GpH7-B3/GpL16-k0 = 100).
T3 construct: extracellular domain; also called 3a; FcgRIIIa; not shown: His tag at the C terminus
T3 sequence (P08637 17-208): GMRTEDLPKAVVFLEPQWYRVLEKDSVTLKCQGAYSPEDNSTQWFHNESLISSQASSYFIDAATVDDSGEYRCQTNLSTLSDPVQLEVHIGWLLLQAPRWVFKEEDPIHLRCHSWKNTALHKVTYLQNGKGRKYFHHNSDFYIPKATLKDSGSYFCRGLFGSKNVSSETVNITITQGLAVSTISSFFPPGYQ

Row | He/Con_3a | Binder
1 | 76.4 % (control = 100) | B1
2 | 30.5 % (control = 100) | B2
3 | 43.8 % (control = 100) | B3
4 | 92.3 % (control = 100) | B4
5 | 96.1 % (control = 100) | B5
6 | 97.5 % (control = 100) | B6
7 | 46.7 % (control = 100) | B7
8 | 96.7 % (control = 100) | B8
9 | 75.5 % (control = 100) | B9
10 | 72.4 % (control = 100) | B10
11 | 84.8 % (control = 100) | B11
12 | 82.8 % (control = 100) | B12
13 | 64.5 % (control = 100) | B13
14 | 28 % (control = 100) | B14
15 | 91.6 % (control = 100) | B15

These binders were tested against T1, FcγRIIb extracellular domain with … in the same assay as above.

Row | He/Con_2b | Binder
16 | 116 % (control = 100) | B1
17 | 174 % (control = 100) | B2
18 | 120 % (control = 100) | B3
19 | 114 % (control = 100) | B4
20 | 119 % (control = 100) | B5
21 | 106 % (control = 100) | B6
22 | 312 % (control = 100) | B7
23 | 144 % (control = 100) | B8
24 | 204 % (control = 100) | B9
25 | 116 % (control = 100) | B10
26 | 148 % (control = 100) | B11
27 | 111 % (control = 100) | B12
28 | 218 % (control = 100) | B13
29 | 101 % (control = 100) | B14
30 | 106 % (control = 100) | B15

What follows are binders tested against T2, FcγRIIb (assay: SPR (Biacore), captured antibody, FcγR as analyte, relative binding).

Row | He/Con_2b | Binder
31 | 78.3 % of GpH7-A5/GpH7-B3/GpL16-k0 | B16
32 | 73.6 % of GpH7-A5/GpH7-B3/GpL16-k0 | B17
33 | 94.3 % of GpH7-A5/GpH7-B3/GpL16-k0 | B18
34 | 68.6 % of GpH7-A5/GpH7-B3/GpL16-k0 | B19
35 | 51.6 % of GpH7-A5/GpH7-B3/GpL16-k0 | B20
36 | 88.2 % of GpH7-A5/GpH7-B3/GpL16-k0 | B21
37 | 87 % of GpH7-A5/GpH7-B3/GpL16-k0 | B22
38 | 93.2 % of GpH7-A5/GpH7-B3/GpL16-k0 | B23

Each binder was assayed against T4, FcγRIa (human, UniProt P12314 16-292) in the same assay as above.
T4 construct: extracellular domain; Soluble extracellular domain with C-terminal His tag, used as analyte; also called FcgRI; CD64; not shown: His tag at the C terminus
T4 sequence (P12314 16-292): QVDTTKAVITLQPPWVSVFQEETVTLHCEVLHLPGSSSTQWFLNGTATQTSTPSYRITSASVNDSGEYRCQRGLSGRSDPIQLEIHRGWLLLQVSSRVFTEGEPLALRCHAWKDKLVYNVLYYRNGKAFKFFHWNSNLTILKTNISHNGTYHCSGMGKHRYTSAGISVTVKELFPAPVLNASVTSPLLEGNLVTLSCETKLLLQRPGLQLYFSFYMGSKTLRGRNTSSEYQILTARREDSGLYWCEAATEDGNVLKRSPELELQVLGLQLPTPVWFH

Row | He/Con_1a | Binder
39 | 103 % of GpH7-A5/GpH7-B3/GpL16-k0 | B16
40 | 113 % of GpH7-A5/GpH7-B3/GpL16-k0 | B17
41 | 104 % of GpH7-A5/GpH7-B3/GpL16-k0 | B18
42 | 102 % of GpH7-A5/GpH7-B3/GpL16-k0 | B19
43 | 107 % of GpH7-A5/GpH7-B3/GpL16-k0 | B20
44 | 114 % of GpH7-A5/GpH7-B3/GpL16-k0 | B21
45 | 111 % of GpH7-A5/GpH7-B3/GpL16-k0 | B22
46 | 112 % of GpH7-A5/GpH7-B3/GpL16-k0 | B23
